B1: CTGAAAAA probe (il-6, il-1b, ccl9, cnbp) (dsDNA)
DNA 1: CTGAAAAA
DNA 2: TTTTTCAG
B2: Mut.5 (dsDNA)
DNA 1: GGGAAAAA
DNA 2: TTTTTCCC
B3: Mut.2 (dsDNA)
DNA 1: AGTGGAGA
DNA 2: TCTCCACT
B4: AAATTAGA probe (il-6, ccl4) (dsDNA)
DNA 1: AAATTAGA
DNA 2: TCTAATTT
B5: AGTTGAGA probe (ccl4) (dsDNA)
DNA 1: AGTTGAGA
DNA 2: TCTCAACT
B6: Mut.3 (dsDNA)
DNA 1: AGTTGCCA
DNA 2: TGGCAACT
B7: AAATTAGT probe (il-12b, ccl5, cnbp) (dsDNA)
DNA 1: AAATTAGT
DNA 2: ACTAATTT
B8: 26-nt-CTGAAAAA (dsDNA)
DNA 1: GGAACTAGTCTGAAAAAGAAACTAAC
DNA 2: GTTAGTTTCTTTTTCAGACTAGTTCC
B9: NF-κB probe (dsDNA)
DNA 1: AATGTGGGATTTTCCCATGA
DNA 2: TCATGGGAAAATCCCACATT
B10: Mut.6 (dsDNA)
DNA 1: CTGGGGGA
DNA 2: TCCCCCAG
B11: 26-nt-AAATTAGT (dsDNA)
DNA 1: TGTAAACAGAAATTAGTATCTCTGCC
DNA 2: GGCAGAGATACTAATTTCTGTTTACA

Molecular target: GST-CNBP Δ54-178 (CNBP-1-53) (mouse, UniProt P53996 1-53, del54-178)
Sequence (P53996 1-53, stated change not applied): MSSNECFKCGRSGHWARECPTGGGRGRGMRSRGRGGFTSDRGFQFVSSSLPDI
Experiment: EMSA

Q: Does B1 bind?
A: binds

Molecular target: T1, GST-CNBP (isoform 1, WT) (mouse, UniProt P53996 1-178)
T1 sequence (P53996 whole entry, canonical isoform): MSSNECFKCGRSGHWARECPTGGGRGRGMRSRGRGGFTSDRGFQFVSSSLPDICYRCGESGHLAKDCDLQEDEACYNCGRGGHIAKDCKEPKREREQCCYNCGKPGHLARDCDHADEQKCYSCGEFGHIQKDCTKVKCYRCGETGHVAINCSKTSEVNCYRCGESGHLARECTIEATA
Experiment: EMSA

Q: With B2 as the binder, how does the binding signal read?
A: > 1 fold of CTGAAAAA

Molecular target: T1, GST-CNBP (isoform 1, WT)
Experiment: EMSA
Remark: another data set of the same source

Q: With B3 as the binder, how does the binding signal read?
A: > 1 fold of AGTTGAGA

Molecular target: T1, GST-CNBP (isoform 1, WT)
Experiment: EMSA
Remark: another data set of the same source

Q: Does GGAGGAGAGAGAGAGAGAGAGAGAGA (mixed) [G-rich 26-nt (strandedness in assay not stated; antisense S140 also listed)] bind?
A: binds

Q: Does B4 bind?
A: binds

Q: Does B5 bind?
A: binds

Q: Does B6 bind?
A: no binding

Q: Does B7 bind?
A: binds

Q: Does B8 bind?
A: binds

Q: Does B1 bind?
A: binds

Q: Does B9 bind?
A: no binding

Q: Does B10 bind?
A: no binding

Q: Does B11 bind?
A: binds

— publication PMC5389554
